Among the data in PMC9798723 are percent of the peptide present as 104 kDa oligomers and oligomer content values, retold here.

The target of assay [1] is synthetic Aβ42CC (amyloid-β 1-42 peptide with A21C/A30C mutations) (human). In words: SEC-MALS; synthetic Aβ42CC 0.6 mg/mL, 50 min at RT after neutralisation to pH 7.2, then frozen; TSK-GEL G4000SWxl, 20 mM sodium phosphate, 150 mM NaCl, pH 7.4, autosampler 5 °C. (In general: Size exclusion chromatography separates by hydrodynamic size, large species first.)
For assay [2] the target is unchanged. Put plainly: SEC-MALS; oligomeric preparations (synthetic Aβ42CC 8 h or 24 h at RT at pH 7.2, or aggregated at RT in PBS at 0.6 mg/mL; recombinant Aβ42CC after concentration or incubation); TSK-GEL G4000SWxl, 20 mM sodium phosphate, 150 mM NaCl, pH 7.4, autosampler 5 °C.

Some results are limits rather than exact numbers.

Regarding “synthetic Aβ42CC (amyloid-β 1-42 peptide with A21C/A30C mutations)”, in assay [1], the percent of the peptide present as 104 kDa oligomers turned out to be 20%. Moreover, the oligomer content in assay [2] is above 94%.
